Experimental data: patent US20130130315A1 (ADVANCECOR, published 2013)
Where “and” joins values, the source holds several entries; their conditions need not be identical. Identical values can stand only once.

Columns and labels:
[1] = biological target: T1, bovine collagen I (bovine, UniProt P02453 162-1217; P02465 80-1117, limits assumed); assay: ELISA on immobilized bovine collagen I
T1 construct: also called immobilized collagen I; soluble collagen I
Method: Fc-protein was used as negative control.
An Immulon 2 HB 96-well plate (NUNC, Rochester, N.Y.) was coated with 0.1 ml 1 μg/ml bovine collagen I in 15 mM Na₂CO3, 35 mM NaHCO3, pH 9.6 o/n at 4° C. Wells were washed with PBS-T, blocked with 0.1 ml 1× RotiBlock (Roth, Karlsruhe, Germany) in PBS-T for one hour and washed again before addition of 0.1 ml of threefold dilutions of fusion protein. After one hour incubation at RT with shaking, wells were washed with PBS-T. Wells were incubated with 0.1 ml anti-human IgG-HRP (Dianova, Hamburg, Germany) 1:10000 in PBS-T for one hour at RT with shaking. The plate was washed with PBS-T and incubated with 0.1 ml 1-Step Ultra TMB-ELISA (PIERCE, Rockford, Ill.). After blue staining had developed sufficiently, reactions were stopped by addition of 0.1 ml 1 M H₂SO₄. Absorbance was measured at 450 nm and 595 nm as a reference wavelength using an infinite F200 plate reader (TECAN, Männedorf, Switzerland). EC₅₀ values were calculated with Sigma Plot 11 using Four Parameter Logistic.

[2] = biological target: T2, CD133 protein (UniProt O43490 20-865, limits assumed); assay: cellular ELISA on fixed AC133/293 cells
T2 construct: whole, on cells; Presented on AC133/293 cells: paraformaldehyde-fixed in the cellular ELISA, unfixed in the phage FACS; also called CD133 antigen; AC133
T2 sequence (looked up): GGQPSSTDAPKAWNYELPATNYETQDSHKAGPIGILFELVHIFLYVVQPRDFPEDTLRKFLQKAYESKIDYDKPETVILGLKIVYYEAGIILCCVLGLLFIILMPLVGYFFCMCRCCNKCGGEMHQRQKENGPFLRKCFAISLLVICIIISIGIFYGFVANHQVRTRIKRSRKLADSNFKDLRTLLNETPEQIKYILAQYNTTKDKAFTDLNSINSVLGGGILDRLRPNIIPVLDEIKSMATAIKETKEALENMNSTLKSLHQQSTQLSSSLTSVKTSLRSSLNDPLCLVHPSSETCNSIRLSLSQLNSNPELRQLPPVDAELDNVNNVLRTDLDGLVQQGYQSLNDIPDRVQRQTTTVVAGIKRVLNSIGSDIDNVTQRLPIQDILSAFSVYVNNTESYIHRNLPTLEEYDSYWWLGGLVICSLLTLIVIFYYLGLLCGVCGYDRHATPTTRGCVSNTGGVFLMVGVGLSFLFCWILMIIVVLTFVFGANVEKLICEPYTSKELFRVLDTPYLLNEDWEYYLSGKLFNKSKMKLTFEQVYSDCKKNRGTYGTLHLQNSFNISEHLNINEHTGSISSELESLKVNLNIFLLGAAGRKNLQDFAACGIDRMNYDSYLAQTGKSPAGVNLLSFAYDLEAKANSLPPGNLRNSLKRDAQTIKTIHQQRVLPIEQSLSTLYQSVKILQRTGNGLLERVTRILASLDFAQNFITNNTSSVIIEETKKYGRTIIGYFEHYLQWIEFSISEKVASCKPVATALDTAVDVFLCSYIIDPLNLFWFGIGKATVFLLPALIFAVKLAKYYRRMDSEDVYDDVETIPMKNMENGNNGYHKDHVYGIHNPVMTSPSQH
Method: (§1) 1×10⁵ cells in 0.2 ml of medium were added to each well and incubated o/n at 37° C., 5% CO₂ to allow cells to attach to the surface of the plate. The next day wells were washed once with 0.2 ml PBS and fixed with 0.1 ml 2% Paraformaldehyde (in PBS, pH 7.4) for 10-20 min at RT. Wells were washed with PBS-T (PBS+0.1% Tween-20) and blocked with either 1× RotiBlock or 3% milk in PBS-T for 1 hour at RT. After washing with PBS-T, serial dilutions of the respective antibody were added to the wells and incubated at RT for at least one hour while shaking. After washing with PBS-T, 0.1 ml of StrepMAb-Classic-HRP (1:10000 in PBS-T, lba BioTagnology, Göttingen, Germany) or of horseradish peroxidase linked anti-mouse IgG (1:10000 in PBS-T, Dianova, Hamburg, Germany) was added and incubated at RT for one hour with shaking. After washing with PBS-T, 0.1 ml of 1-Step Ultra TMB-ELISA substrate (Thermo Scientific, Braunschweig, Germany) was added and incubated until an adequate blue staining developed. To stop the reaction 0.1 ml 1 M H₂SO₄ was added to each well and absorbance at 450 nm and 595 nm as a reference was measured with an infinite F200 plate reader (TECAN, Männedorf, Switzerland). […] Signals were detected using an anti-mouse IgG-HRP antibody (1:10000 in PBS-T, Dianova, Hamburg, Germany). […]

[3] = biological target: T2, CD133 protein; assay: competition cellular ELISA on fixed AC133/293 cells; competitor of 2 nM W6B3H10 mAb
Method: 1×10⁵ cells in 0.2 ml of medium were added to each well and incubated o/n at 37° C., 5% CO₂ to allow cells to attach to the surface of the plate. The next day wells were washed once with 0.2 ml PBS and fixed with 0.1 ml 2% Paraformaldehyde (in PBS, pH 7.4) for 10-20 min at RT. Wells were washed with PBS-T (PBS+0.1% Tween-20) and blocked with either 1× RotiBlock or 3% milk in PBS-T for 1 hour at RT. After washing with PBS-T, serial dilutions of the respective antibody were added to the wells and incubated at RT for at least one hour while shaking. After washing with PBS-T, 0.1 ml of StrepMAb-Classic-HRP (1:10000 in PBS-T, lba BioTagnology, Göttingen, Germany) or of horseradish peroxidase linked anti-mouse IgG (1:10000 in PBS-T, Dianova, Hamburg, Germany) was added and incubated at RT for one hour with shaking. After washing with PBS-T, 0.1 ml of 1-Step Ultra TMB-ELISA substrate (Thermo Scientific, Braunschweig, Germany) was added and incubated until an adequate blue staining developed. To stop the reaction 0.1 ml 1 M H₂SO₄ was added to each well and absorbance at 450 nm and 595 nm as a reference was measured with an infinite F200 plate reader (TECAN, Männedorf, Switzerland). […] Signals were detected using an anti-mouse IgG-HRP antibody (1:10000 in PBS-T, Dianova, Hamburg, Germany).

[4] = biological target: T2, CD133 protein; assay: FACS of phage dilution series on AC133/293 cells
[5] = biological target: T3, CD133 protein (UniProt O43490 20-865); assay: FACS; panel A, Median FI
T3 chain: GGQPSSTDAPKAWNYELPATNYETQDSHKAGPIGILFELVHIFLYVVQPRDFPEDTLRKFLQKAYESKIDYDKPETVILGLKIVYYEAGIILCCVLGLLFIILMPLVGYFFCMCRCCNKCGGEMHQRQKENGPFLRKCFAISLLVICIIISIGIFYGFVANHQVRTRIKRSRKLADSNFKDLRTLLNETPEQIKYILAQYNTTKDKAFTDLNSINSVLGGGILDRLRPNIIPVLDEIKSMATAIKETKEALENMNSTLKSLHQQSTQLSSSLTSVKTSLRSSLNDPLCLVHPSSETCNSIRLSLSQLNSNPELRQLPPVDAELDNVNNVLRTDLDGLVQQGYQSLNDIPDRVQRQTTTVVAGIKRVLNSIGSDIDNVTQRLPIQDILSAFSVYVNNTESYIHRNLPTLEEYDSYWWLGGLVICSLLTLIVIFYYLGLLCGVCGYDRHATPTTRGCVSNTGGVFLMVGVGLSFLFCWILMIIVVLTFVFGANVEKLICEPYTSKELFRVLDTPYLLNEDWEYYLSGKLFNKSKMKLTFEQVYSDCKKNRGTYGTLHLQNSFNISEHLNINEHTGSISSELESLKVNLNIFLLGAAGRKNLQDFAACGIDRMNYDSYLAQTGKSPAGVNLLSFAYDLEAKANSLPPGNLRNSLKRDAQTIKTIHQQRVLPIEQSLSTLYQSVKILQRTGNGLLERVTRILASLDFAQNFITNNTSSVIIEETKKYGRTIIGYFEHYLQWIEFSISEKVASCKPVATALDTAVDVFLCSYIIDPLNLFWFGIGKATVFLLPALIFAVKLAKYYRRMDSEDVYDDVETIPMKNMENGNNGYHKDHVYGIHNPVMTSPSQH

[6] = biological target: T3, CD133 protein; assay: FACS; panel A, Geo-Mean FI
[7] = biological target: T2, CD133 protein; assay: competitive cellular ELISA on fixed AC133/293 cells; competitor of 2 nM W6B3H10 mAb
Method: as §1

[8] = biological target: T2, CD133 protein; assay: FACS of phage dilution series on AC133/293 cells, mean fluorescence index

T1 sequence (P02453 162-1217 limits assumed, chain 1 of 2): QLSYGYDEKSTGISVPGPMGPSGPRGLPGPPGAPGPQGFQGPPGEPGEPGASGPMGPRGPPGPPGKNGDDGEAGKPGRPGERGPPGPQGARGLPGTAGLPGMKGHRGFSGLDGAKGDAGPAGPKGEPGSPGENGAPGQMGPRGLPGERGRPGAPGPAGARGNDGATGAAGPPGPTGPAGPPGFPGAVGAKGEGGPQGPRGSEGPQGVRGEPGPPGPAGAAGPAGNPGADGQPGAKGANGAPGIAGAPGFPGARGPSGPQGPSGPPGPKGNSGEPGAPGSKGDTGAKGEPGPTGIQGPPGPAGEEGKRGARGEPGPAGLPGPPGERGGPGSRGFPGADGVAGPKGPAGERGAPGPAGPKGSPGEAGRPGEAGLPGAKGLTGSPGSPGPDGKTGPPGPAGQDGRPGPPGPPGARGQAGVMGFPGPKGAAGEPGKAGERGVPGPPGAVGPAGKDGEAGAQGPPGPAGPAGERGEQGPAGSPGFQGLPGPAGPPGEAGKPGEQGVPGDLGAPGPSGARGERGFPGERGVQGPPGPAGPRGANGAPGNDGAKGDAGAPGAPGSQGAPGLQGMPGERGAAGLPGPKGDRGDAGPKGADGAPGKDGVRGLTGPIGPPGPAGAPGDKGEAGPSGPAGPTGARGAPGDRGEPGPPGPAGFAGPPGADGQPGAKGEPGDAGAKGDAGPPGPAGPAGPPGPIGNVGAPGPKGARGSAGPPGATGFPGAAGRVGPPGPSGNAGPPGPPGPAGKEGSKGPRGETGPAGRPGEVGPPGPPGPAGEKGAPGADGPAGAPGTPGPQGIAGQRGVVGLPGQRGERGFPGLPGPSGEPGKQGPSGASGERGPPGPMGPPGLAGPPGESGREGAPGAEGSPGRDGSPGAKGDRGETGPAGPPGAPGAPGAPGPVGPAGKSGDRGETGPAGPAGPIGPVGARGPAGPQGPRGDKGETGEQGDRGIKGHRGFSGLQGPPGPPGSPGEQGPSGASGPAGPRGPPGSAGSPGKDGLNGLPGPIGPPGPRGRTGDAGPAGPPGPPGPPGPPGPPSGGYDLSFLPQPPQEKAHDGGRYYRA
T1 sequence (P02465 80-1117 limits assumed, chain 2 of 2): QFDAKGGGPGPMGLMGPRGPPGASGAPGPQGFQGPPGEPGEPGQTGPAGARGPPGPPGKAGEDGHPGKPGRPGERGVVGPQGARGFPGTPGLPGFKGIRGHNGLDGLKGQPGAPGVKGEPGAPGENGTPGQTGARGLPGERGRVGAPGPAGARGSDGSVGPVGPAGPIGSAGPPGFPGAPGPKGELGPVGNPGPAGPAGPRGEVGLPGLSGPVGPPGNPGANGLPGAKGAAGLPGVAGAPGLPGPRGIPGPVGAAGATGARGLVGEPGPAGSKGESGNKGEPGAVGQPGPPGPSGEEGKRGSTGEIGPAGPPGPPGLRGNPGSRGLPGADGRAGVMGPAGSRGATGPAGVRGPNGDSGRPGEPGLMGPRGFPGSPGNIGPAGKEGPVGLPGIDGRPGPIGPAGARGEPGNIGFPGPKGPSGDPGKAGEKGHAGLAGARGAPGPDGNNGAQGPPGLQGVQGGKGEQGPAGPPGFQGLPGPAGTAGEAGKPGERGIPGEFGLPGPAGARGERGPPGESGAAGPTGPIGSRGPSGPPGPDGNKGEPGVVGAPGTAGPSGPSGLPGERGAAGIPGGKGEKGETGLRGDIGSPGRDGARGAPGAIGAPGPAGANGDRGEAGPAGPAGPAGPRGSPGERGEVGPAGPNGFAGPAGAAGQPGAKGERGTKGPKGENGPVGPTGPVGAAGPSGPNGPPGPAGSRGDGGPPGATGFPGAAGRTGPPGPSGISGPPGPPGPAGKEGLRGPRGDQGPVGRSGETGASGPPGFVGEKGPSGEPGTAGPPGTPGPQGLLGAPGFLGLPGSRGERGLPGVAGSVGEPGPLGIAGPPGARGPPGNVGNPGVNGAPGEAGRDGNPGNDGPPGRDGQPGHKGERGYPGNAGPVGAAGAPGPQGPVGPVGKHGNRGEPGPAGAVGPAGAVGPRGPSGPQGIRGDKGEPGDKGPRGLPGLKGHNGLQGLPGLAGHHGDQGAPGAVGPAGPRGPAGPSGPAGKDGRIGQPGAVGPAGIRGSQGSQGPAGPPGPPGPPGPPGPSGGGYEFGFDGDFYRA

B1: fusion protein scFv-lh-GPVI-FcIgG2 (Fc fusion)
chain: DILMTQSPKSMSMSLGERVTLSCKASENVDTYVSWYQQKPEQSPKVLIYGASNRYTGVPDRFTGSGSATDFSLTISNVQAEDLADYHCGQSYRYPLTFGAGTKLELKGGGGSGGGGSGGGGSEVQLQQSGPDLMKPGASVKISCKASGYSFTNYYVHWVKQSLDKSLEWIGYVDPFNGDFNYNQKFKDKATLTVDKSSSTAYMHLSSLTSEDSAVYYCARGGLDWYDTSYWYFDVWGAGTAVTVSSQSGPLPKPSLQALPSSLVPLEKPVTLRCQGPPGVDLYRLEKLSSSRYQDQAVLFIPAMKRSLAGRYRCSYQNGSLWSLPSDQLELVATGVFAKPSLSAQPGPAVSSGGDVTLQCQTRYGFDQFALYKEGDPAPYKNPERWYRASFPIITVTAAHSGTYRCYSFSSRDPYLWSAPSDPLELVVTGTSVTPSRLPTEPPSSVAEFSEATAELTVSFTNKVFTTETSRSITTSPKESDSPAGPARQYYTKGNGGRVECPPCPAPPVAGPSVFLFPPKPKDTLMISRTPEVTCVVVDVSHEDPEVQFNWYVDGVEVHNAKTKPREEQFNSTFRVVSVLTVVHQDWLNGKEYKCKVSNKGLPAPIEKTISKTKGQPREPQVYTLPPSREEMTKNQVSLTCLVKGFYPSDIAVEWESNGQPENNYKTTPPMLDSDGSFFLYSKLTVDKSRWQQGNVFSCSVMHEALHNHYTQKSLSLSPGK
notes: also called parental fusion protein; mouse fusion protein
**Q.** B1 was tested. Which EC50 [1] did it give?
**A.** 6.3 nM

**Q.** And the EC50 [2]?
**A.** 0.21 nM

**Q.** And the IC50 [3]?
**A.** 3.1 nM

B2: phage m1h harboring the mouse single chain sequence (scFv)
scFv: DILMTQSPKSMSMSLGERVTLSCKASENVDTYVSWYQQKPEQSPKVLIYGASNRYTGVPDRFTGSGSATDFSLTISNVQAEDLADYHCGQSYRYPLTFGAGTKLELKGGGGSGGGGSGGGGSEVQLQQSGPDLMKPGASVKISCKASGYSFTNYYVHWVKQSLDKSLEWIGYVDPFNGDFNYNQKFKDKATLTVDKSSSTAYMHLSSLTSEDSAVYYCARGGLDWYDTSYWYFDVWGAGTAVTVSS
notes: also called phage harboring the original mouse single chain antibody; not shown: fusion to the phage coat protein; display format not described
**Q.** How did the Kd [4] turn out when B2 was run?
**A.** 0.0256 nM and 0.0269 nM

**Q.** And the Kd [5]?
**A.** 0.0185 nM

**Q.** And the Kd [6]?
**A.** 0.0174 nM

B3: single chain antibody scFv-lh (scFv, not shown: a dimerising Fc or GST)
scFv: DILMTQSPKSMSMSLGERVTLSCKASENVDTYVSWYQQKPEQSPKVLIYGASNRYTGVPDRFTGSGSATDFSLTISNVQAEDLADYHCGQSYRYPLTFGAGTKLELKGGGGSGGGGSGGGGSEVQLQQSGPDLMKPGASVKISCKASGYSFTNYYVHWVKQSLDKSLEWIGYVDPFNGDFNYNQKFKDKATLTVDKSSSTAYMHLSSLTSEDSAVYYCARGGLDWYDTSYWYFDVWGAGTAVTVSS
notes: Orientation light-heavy; Made in CHO cells and in E. coli (pET22b); also called mouse single chain antibody; parental mouse single chain antibody
**Q.** B3 was tested. Which IC50 [7] did it give?
**A.** 3.1 nM

B4: phage clone 26 (humanized single chain antibody clone 26) (scFv)
scFv: DIQMTQSPKSLSASVGDRVTITCKASENVDTYVSWYQQKPGKAPKVLIYGASNRYTGVPSRFTGSGSATDFTLTISSLQPEDFATYYCGQSYRYPLTFAQGTKVEIKGGGGSGGGGSGGGGSEVQLVQSGAEVKKPGASVKVSCKASGYSFTNYYVHWVKQAPGQGLEWMGYVDPFNGDFNYNQKFKDRVTLTVDTSTSTAYMELSSLTSEDRAVYYCARGGLDWYDTSYWYFDVWGQGTLVTVSS
notes: not shown: fusion to the phage coat protein; display format not described
**Q.** B4 was tested. Which Kd [5] did it give?
**A.** 0.0213 nM

**Q.** What about the Kd [6] of the same binder?
**A.** 0.0182 nM

**Q.** What about the Kd [8] of the same binder?
**A.** 0.0322 nM
